# Results: US20160090401A1 (UNIVERSITY OF BRISTOL, published 2016)
# Bridge positions count the residues as written; N and C are the ends. I, II: the chains in the order shown.
# T1: CC-Di-AB (N-terminal acetyl (Ac-); C-terminal amide (printed -NH))
# T1 construct: also called heterodimer CC-Di-AB; heterodimeric coiled coil
# T1 peptide 1: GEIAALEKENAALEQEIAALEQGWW
# T1 peptide 2: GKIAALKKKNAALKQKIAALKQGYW
# T2: CC-Tri3-CC-Di-BQ (N-terminal acetyl; C-terminal amide; Cys in an asymmetric disulfide with the Cys of the trimer chain; N-terminal acetyl; C-terminal amide; Cys in an asymmetric disulfide with the Cys of the CC-Di-BQ …)
# T2 peptide 1: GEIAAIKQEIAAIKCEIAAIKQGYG
# T2 peptide 2: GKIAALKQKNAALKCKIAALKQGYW
# T3: CC-Di-BI (N-terminal acetyl; C-terminal amide)
# T3 construct: also called basic peptide of CC-Di-AIBI
# T3 peptide: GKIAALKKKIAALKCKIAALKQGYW
# B1: CC-Tri3 (peptide)
# peptide: Ac-GEIAAIKKEIAAIKQEIAAIKQGYG-NH2
# notes: also called homotrimer CC-Tri3; homotrimeric coiled coil
# B2: CC-Tri3-CC-Di-AQ (other)
# peptide 1: Ac-GEIAAIKQEIAAIKCEIAAIKQGYG-NH2
# peptide 2: Ac-GEIAALEQENAALECEIAALEQGWW-NH2
# modifications: disulfide I:15-II:15 (inferred)
# B3: CC-Di-A (peptide)
# peptide: Ac-GEIAALEKENAALEQEIAALEQGWW-NH2
# notes: Free module
# B4: CC-Di-AI (peptide)
# peptide: Ac-GEIAALEKEIAALECEIAALEQGWW-NH2
# notes: also called acidic peptide of CC-Di-AIBI
# B5: CC-Di-B (peptide)
# peptide: Ac-GKIAALKKKNAALKQKIAALKQGYW-NH2
# notes: Free module
# How the values were obtained:
# [1] = target: T1, CC-Di-AB; assay: CD thermal melting of the mixture, the same as the average of the two independent profiles
# [2] = target: the molecule itself; assay: CD-monitored thermal denaturation over a range of peptide concentrations, extrapolated to 20 °C; dissociation of the homotrimer (two-state)
# [3] = target: T2, CC-Tri3-CC-Di-BQ; assay: mixing with the respective partner in PBS, 50 µM; SEM
# [4] = target: the molecule itself; assay: CD spectroscopy of the peptide alone (no homomeric coiled coil)
# [5] = target: B5; assay: CD-monitored thermal denaturation over a range of peptide concentrations, extrapolated to 20 °C; dissociation of the heterodimer (two-state)
# [6] = target: T3, CC-Di-BI; assay: method not stated for this variant
binder,measurement,setting,value
B1,binding result,[1],no binding
same,Kd,[2],0.0399 pM
B2,binding result,[3],binds
B3,binding result,[4],no binding (tested: micromolar range)
same,Kd,[5],58.3 nM
B4,affinity relative to the CC-Di-AB parent,[6],> 100 fold
B5,binding result,[4],no binding (tested: micromolar range)
